# “And” between values parts separate entries of the source, which are not always exact repeats. Equal values may be shown once.
# Columns and labels:
# [1] = target: Active human KLK5 (human) (UniProt Q9Y337); assay: cell-based or functional assay
# [2] = target: Active cyno KLK5 (cynomolgus monkey)
substance,measurement,setting,value
Human LEKTI D5 rabbit Fc fusion protein,"Hu KLK5 IC50, inhibition of protease activity (Boc-VPR-AMC) (not printed (M by Table 2))",[1],1.03e-10 and 7.44e-11
same,"IC50 (M), inhibition of kallikrein protease activity (fluorogenic peptide substrate)",[1],1.03e-10 M
same,IC50 (read off the curve),[2],700 pM

# — patent publication US20230075753A1
